Reference: paper PMC5225419

Biological target: full length (FL) human recombinant TPPP/p25 (Tubulin Polymerization Promoting Protein) (human) (UniProt O94811)
Assay: SDS-PAGE without reducing agent; 5 ug protein from the 200 uM stock solution loaded directly onto the gel in the absence of DTE; disulphide-stabilized dimers

- stoichiometry N: 2
Substance: full length (FL) human recombinant TPPP/p25 (Tubulin Polymerization Promoting Protein) (from UniProt O94811 1-219) (natural protein; other documents disagree on this pair)
